We go through two molecules from patent US20180155451A1 (published 2018).

Residue numbers refer to the chain shown, from its start.

Experiment [1] concerns the target T1, Protein A (rProtein A Sepharose Fast Flow) (UniProt P38507 37-327).
T1 construct: Bought chromatography resin
Briefly: Protein A affinity chromatography (rProtein A Sepharose Fast Flow); the species is 3.2% of the Protein G-purified control but is not found in the pH 3.6 or the pH 2.7 elution fraction (cation exchange analysis). The procedure:
(§1) CM filtered through ϕ0.22-μm filter was loaded onto rProtein A Sepharose Fast Flow column (GE Healthcare) equilibrated with D-PBS. Washes 1 and 2 and Elutions 1 and 2 shown in Table 76 were carried out (Elution 1 alone was performed for Q407-z106/J300-z107/L210-k). […] The quantity of CM to be loaded was adjusted in a way that the quantity of the loaded antibody is 20 mg/ml resine. Fractions eluted under each condition were collected and the components contained in each elution fraction were identified by cation exchange chromatography analysis. […] Samples purified by batchwise elution were used as controls.
(§2) The values represent the area of elution peak expressed in percentage.

The target in experiment [2] is T1, Protein A (rProtein A Sepharose Fast …). Put plainly: Protein A affinity chromatography (rProtein A Sepharose Fast Flow); the species is 5.8% of the Protein G-purified control but is not found in the pH 3.6 elution fraction (cation exchange analysis). As to the method: as §1, §2

B1: J142-z73/L180-k (antibody, human IgG4 S228P, kappa)
heavy: QVQLVQSGSELKKPGASVKVSCKASGYTFTDNNMDWVRQAPGQGLEWMGDINTRSGGSIYNEEFQDRVTMTIDKSTGTAYMELSSLRSEDTAVYYCARRRSYGYYHDEWGEGTLVTVSSASTKGPSVFPLAPCSRSTSESTAALGCLVKDYFPEPVTVSWNSGALTSGVHTFPAVLQSSGLYSLSSVVTVPSSSLGTKTYTCNVDHKPSNTKVDKRVESKYGPPCPPCPAPEFLGGPSVFLFPPKPKDTLMISRTPEVTCVVVDVSQEDPEVQFNWYVDGVEVHNAKTKPREEQFNSTYRVVSVLTVLHQDWLNGKEYKCKVSNKGLPSSIEKTISKAKGQPREPQVYTLPPSQEEMTKNQVSLTCLVKGFYPSDIAVEWESNGQPENNYKTTPPVLDSDGSFFLYSRLTVDKSRWQEGNVFSCSVMHEALHNRFTQESLSLSP
light: DIQMTQSPSSLSASVGDRVTITCKASRNIERNLAWYQQKPGQAPELLIYSASRKESGVPDRFSGSRYGTDFTLTISSLQPEDLATYYCQQYYSPPLTFGGGTKVEIKRTVAAPSVFIFPPSDEQLKSGTASVVCLLNNFYPREAKVQWKVDNALQSGNSQESVTEQDSKDSTYSLSSTLTLSKADYEKHKVYACEVTHQGLSSPVTKSFNRGEC
notes: also called homomeric antibody against FX
Take B1: in experiment [1], the binding result is recorded as “no binding”.

B2: J300-z107/L210-k (antibody, human IgG4 S228P, kappa)
heavy: B1 heavy with T69I, I72V, G77D, Y95H, R100K, H106L, K198Q, F295Y, R408K, F435Y
light: B1 light with L83I, Y92S
notes: Homomeric by-product in the culture medium of cells that express Q407-z106/J300-z107/L210-k; The H chain gene was made by linking z107 downstream of J300; also called homomeric antibody against FX
Regarding B2, in experiment [2], the binding result is reported as “no binding”.
